B1: SPO1: yeast GST-HisX6 fusion protein on proteome chip (protein, UniProt P53541 18-631, looked up)
Putative meiotic …: TAPFQVQCPSSPLIREAKHELCPEETLYLKKKKIKTKNKLIQFLKSLTEAKFSSKFYKRVLKDPPKIGIAISGGGYRSMLVGTGFISQMNDYGLFEYSDYIAGLSGGSWILMDLVVQNFEVKSLLQEWDLEEDLLLGIPEFDISEEEIVTNAKKEYNDNDLKMKKRQGGSLITSSSNFYEQIEEIMNSIEEIPEDYMITKRNLNPLARLKKIFFPNNTFTGTDAKIETFKKVLDFYKSLHLKIKPKKMEGFQISFTDYWGKAIVQRLKKNFDDDPNHSFSFSKLVNSSKKFKECSVPIPIFVANCKNGLLSNVIFEFTPFEFGSWENILRLFVKLPYLGSKIVSGKAEKCINNFDDLGFITATSSSIFNNVLIFIWNLASQSSREAMKALNMVMGIFGLGKEEIFSISKDSSRLETDYAVYQPNPFYLYPEKDNVLTNKNHLYLVDGGEDGENIPLRTLVIPERELDVIFVLDSSSDIDNYPNGSKLKRIFEKLDEENVHYQFPNNVKTFTHPIVIGCNATKRTGHDSFLPIIIYHANANHGNASNTSTFKITYNQSEVSSMLPTGRGVFSNDYDLYYKNCLGCILTKRTMDRLPRKKKFSPFCLQCFKDYCYS
modifications: GST-His6 tag
notes: yeast GST-HisX6 fusion protein on proteome chip
B2: YEL064C: yeast GST-HisX6 fusion protein on proteome chip (protein, UniProt P39981 1-480, looked up)
Vacuolar amino acid …: MSELGEYSKLENKELRTEFELTNFPFPGTTDNDSDDGSQGQNSLNIITPDMDDTLVNDVLRENDKKSSMRMAFMNLANSILGAGIITQPFAIKNAGILGGLLSYVALGFIVDWTLRLIVINLTLAGKRTYQGTVEHVMGKKGKLLILFTNGLFAFGGCIGYCIIIGDTIPHVLRAIFSQNDGNVHFWLRRNVIIVMVTTFISFPLSMKRNIEALSKASFLAVISMIIIVLTVVIRGPMLPYDWKGHSLKLSDFFMKATIFRSLSVISFALVCHHNTSFIFFSMRNRSVAKFTRLTHISIIISVICCALMGYSGFAVFKEKTKGNVLNSFPGTDTAINIARLCFGFNMLTTFPMEIFVLRDVVGNLLHECNLIKNYDEHTQLSGKQHVVITSSLVFITMGISLTTCNLGALFELIGATTASTMAYILPPYTNLLLTSKKKSWKERLPFYLCICFGFMIMIISSTQTIIDAVNGSDGQHCQI
modifications: GST-His6 tag
notes: as for B1
B3: MUB1: yeast GST-HisX6 fusion protein on proteome chip (protein, UniProt Q03162 1-620, looked up)
MYND-type zinc finger protein …: MRDSNHRSLTSNKPIVTITSTVYDRRALDINSSIPLINSLNYLTYLTSNSSKVRETVANDGALERLVSILRSCHLSLFELLDLDLENFNEHENIKDLWKEKRLALCAWKWTLTFQCLVLTGTRGTEQIRKKVVMSGVLSVLVTVLDNYLLYHKNYDFIKDQTMTFDFKGITTETMYKFMRKDENETYQQYIEFITGQDKLKLSTDKNFLNERLVAPSMTIPTDFSDIWGRFADLASNFEPDQERHDDDIDIDSEVESENFDAHKNFFSQPDINRPTISTPREFFLGRIVPKQDDVIWSLQLLAFVSKYTYMKSTLQNVELVESLSFRSMAYKIKQRISEENDLEEQERDVTVKLSSLYPYLSKNPENNSKVKALDTSKMDPFFKELEELSNRCQQEEQNEICNNHCPVLNLFERYRVPKPSDDNAYGKDKERINLRKKISDNFERRWSYDKMKKELTNIVYKNKVLTNVVNIFPLVEKYTVSAENTHDVIYWSSVIMRNSCRKNEILGVRQCANFSCGKWEDFPRQFAKCRRCKRTKYCSRKCQLKAWGYHRYWCHEVGSSHMRSTNTTTGVNTPNEPSSLNATATTAADVSNSTSTFTPNISTTVPDEISNRDENSIPE
modifications: GST-HisX6 tag
notes: as for B1
B4: CAK1: yeast GST-HisX6 fusion protein on proteome chip (protein, UniProt P43568 1-368, looked up)
Serine/threonine-protein …: MKLDSIDITHCQLVKSTRTARIYRSDTYAIKCLALDFDIPPHNAKFEVSILNKLGNKCKHILPLLESKATDNNDLLLLFPFEEMNLYEFMQMHYKRDRRKKNPYYDLLNPSIPIVADPPVQKYTNQLDVNRYSLSFFRQMVEGIAFLHENKIIHRDIKPQNIMLTNNTSTVSPKLYIIDFGISYDMANNSQTSAEPMDSKVTDISTGIYKAPEVLFGVKCYDGGVDVWSLLIIISQWFQRETSRMGHVPAMIDDGSDDMNSDGSDFRLICSIFEKLGIPSIQKWEEVAQHGSVDAFVGMFGADGDGKYVLDQEKDVQISIVERNMPRLDEIADVKVKQKFINCILGMVSFSPNERWSCQRILQELEKP
modifications: GST-HisX6 tag
notes: as for B1
B5: VAC7: yeast GST-HisX6 fusion protein on proteome chip (protein, UniProt P53950 1-1165, looked up)
Vacuolar segregation protein 7: MTEEDRKLTVETETVEAPVANNLLLSNNSNVVAPNPSIPSASTSTSPLHREIVDDSVATANTTSNVVQHNLPTIDNNLMDSDATSHNQDHWHSDINRAGTSMSTSDIPTDLHLEHIGSVSSTNNNSNNALINHNPLSSHLSNPSSSLRNKKSSLLVASNPAFASDVELSKKKPAVISNNMPTSNIALYQTARSANIHGPSSTSASKAFRKASAFSNNTAPSTSNNIGSNTPPAPLLPLPSLSQQNKPKIIERPTMHVTNSREILLGENLLDDTKAKNAPANSTTHDNGPVANDGLRIPNHSNADDNENNNKMKKNKNINSGKNERNDDTSKICTTSTKTAPSTAPLGSTDNTQALTASVSSSNADNHNNNKKKTSSNNNGNNSNSASNKTNADIKNSNADLSASTSNNNAINDDSHESNSEKPTKADFFAARLATAVGENEISDSEETFVYESAANSTKNLIFPDSSSQQQQQQQQPPKQQQQQQNHGITSKISAPLLNNNKKLLSRLKNSRHISTGAILNNTIATISTNPNLNSNVMQNNNNLMSGHNHLDELSSIKQEPPHQLQQQQPPMDVQSVDSYTSDNPDSNVIAKSPDKRSSLVSLSKVSPHLLSSTSSNGNTISCPNVATNSQELEPNNDISTKKSLSNSTLRHSSANRNSNYGDNKRPLRTTVSKIFDSNPNGAPLRRYSGVPDHVNLEDYIEQPHNYPTMQNSVKKDEFYNSRNNKFPHGLNFYGDNNVIEEENNGDSSNVNRPQHTNLQHEFIPEDNESDENDIHSMFYYNHKNDLETKPLISDYGEDEDVDDYDRPNATFNSYYGSASNTHELPLHGRMPSRSNNDYYDFMVGNNTGNNNQLNEYTPLRMKRGQRHLSRTNNSIMNGSIHMNGNDDVTHSNINNNDIVGYSPHNFYSRKSPFVKVKNFLYLAFVISSLLMTGFILGFLLATNKELQDVDVVVMDNVISSSDELIFDITVSAFNPGFFSISVSQVDLDIFAKSSYLKCDSNGDCTVMEQERKILQITTNLSLVEESANNDISGGNIETVLLGTAKKLETPLKFQGGAFNRNYDVSVSSVKLLSPGSREAKHENDDDDDDDGDDGDDENNTNERQYKSKPNARDDKEDDTKKWKLLIKHDYELIVRGSMKYEVPFFNTQKSTAIQKDSMVHPGKK
modifications: GST-His6 tag
notes: as for B1

Legend:
Conditions in all cases: liposome binding signal on yeast proteome chip, Cy3-streptavidin detection
[1] = system: phosphatidylcholine (PC) liposomes; test: Yeast proteome chip probed with PC liposomes
How it was run: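 Yeast proteome chips incubated 1 h at RT with sonicated liposomes of PC containing 1% (w/w) biotin-DHPE, plus 5% (w/w) of the indicated phosphoinositide where applicable. After PBS washes, bound liposomes detected with Cy3- or Cy5-streptavidin (>30 min, RT, dark) and fluorescence scanned.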

PI(3)P liposomes = test: Yeast proteome chip probed with PI(3)P liposomes
PI(4,5)P2 liposomes = test: Yeast proteome chip probed with PI(4,5)P2 liposomes
PI(4)P liposomes = test: Yeast proteome chip probed with PI(4)P liposomes
PI(3,4)P2 liposomes = test: Yeast proteome chip probed with PI(3,4)P2 liposomes
PI(3,4,5)P3 liposomes = test: Yeast proteome chip probed with PI(3,4,5)P3 liposomes

| Molecule | PC [1] | PI(3)P (PI(3)P liposomes) | PI(4, 5)P2 (PI(4,5)P2 liposomes) | PI(4)P (PI(4)P liposomes) | PI(3, 4)P2 (PI(3,4)P2 liposomes) | PI(3, 4, 5)P3 (PI(3,4,5)P3 liposomes) |
| --- | --- | --- | --- | --- | --- | --- |
| B1 | 5.58 | −6.50 | 14.37 | 0.44 | 18.99 | −9.22 |
| B2 | 5.28 | −5.00 | 6.53 | −3.92 | −3.14 | −0.90 |
| B3 | 2.64 | −6.00 | −4.79 | 19.38 | 9.89 | 9.79 |
| B4 | 854.02 | 99.50 | 233.85 | 1431.44 | 245.20 | 269.10 |
| B5 | −1.17 | 28.75 | 21.99 | 28.74 | 19.62 | 13.16 |

From patent US20050182242A1, “Global analysis of protein activities using proteome chips” (priority 2001, published 2005)
